We go through one substance from patent publication US7629443.

Experiment [1] has as its target SARS-CoV S protein on SARS pseudovirus (SARS-CoV) (UniProt P59594). As to the kind of experiment: cell-based or functional assay.
Experiment [2] deals with DTT-reduced RBD-Fc (SARS-CoV; human) (UniProt P59594). The experiment can be described thus: ELISA, antigen coated 1 µg/ml, mAb 10 µg/ml. (In general: An ELISA detects its analyte on a solid surface through an enzyme-linked reagent.)
The target of experiment [3] is DTT-reduced S1-C9 (SARS-CoV) (UniProt P59594). The experiment can be described thus: ELISA, antigen coated 1 µg/ml, mAb 10 µg/ml.
Experiment [4] concerns the target RBD-Fc (SARS-CoV; human) (UniProt P59594). The experiment can be described thus: ELISA, antigen coated 1 µg/ml, mAb 10 µg/ml.
A further experiment has as its target S1-C9 (SARS-CoV) (UniProt P59594). As to the kind of experiment: ELISA, antigen coated 1 µg/ml, mAb 10 µg/ml.
Experiment [5] deals with RBD-Fc (SARS-CoV; human) (UniProt P59594). As to the kind of experiment: competitive ELISA on coated RBD-Fc; competitor: biotinylated 10E7.
The target is the same in experiment [6]. As to the kind of experiment: competitive ELISA on coated RBD-Fc; competitor: biotinylated 17H9.
Experiment [7] has the same target. As to the kind of experiment: competitive ELISA on coated RBD-Fc; competitor: biotinylated 33G4.
Experiment [8] has the same target. As to the kind of experiment: competitive ELISA on coated RBD-Fc; competitor: biotinylated 45B5.
Experiment [9] shares this target. The experiment can be described thus: competitive ELISA on coated RBD-Fc; competitor: biotinylated 11E12.

A value given as a limit tells only on which side of the number the result lay.

The % inhibition is the change of the read-out against control, counted positive when it falls. On to 4D5 (antibody), for which the ND50, neutralization of SARS pseudovirus infection of 293T/ACE2 cells in experiment [1] was > 100 µg/mL. In addition, the reactivity (absorbance at 450 nm) stood at 1.36 in [2], 0.94 in experiment [3], 0.88 in the experiment with RBD-Fc (SARS-CoV; human) [4] and 0.65 in the experiment with S1-C9 (SARS-CoV). Moreover, the % inhibition with RBD-Fc (SARS-CoV; human) [5] was 13%; with RBD-Fc (SARS-CoV; human) [6], -10.5%; in the experiment with RBD-Fc (SARS-CoV; human) [7], -11.1%; with RBD-Fc (SARS-CoV; human) [8], 1%; with RBD-Fc (SARS-CoV; human) [9], 10.6%.
